Consider 2 proteins from patent US10077436B2, “Beta-glucosidase enzymes for increased biomass saccharification” (Edeniq, Inc., priority 2013, dated 2018).

What all share (assay type): biochemical, Aspergillus niger
Substrate in series [1]: O=[N+]([O-])c1ccc(O[C@@H]2O[C@H](CO)[C@@H](O)[C@H](O)[C@H]2O)cc1
The series can be described thus: BG kinetics, pNPG hydrolysis assay with glucose as competitive inhibitor, yEdQ885-BG. The following applies: other: pNPG substrate, pH 5.0, 50° C. The text has this: (§1) The beta-glucosidase (BG) gene from Aspergillus niger (Accession #CAB75696.1) was integrated into the TR3 yeast background at the T4U3 genomic site.
(§2) High resolution enzyme assays and kinetic testing comparing the beta-glucosidases described herein and commercial enzyme preparations were pursued to more clearly quantify differences in mutant BG enzymes compared to the wild type BG enzyme. Based on data presented herein, BG mutant YEdQ885 was selected for further analysis and compared to the BG activity present in commercial preparations of SP188 (Novozymes) and Accellerase® BG (DuPont) as well as wild type BG.
(§3) The kinetic properties of beta glucosidase are important for cellulosic hydrolysis, since in commercial situations a wide range of substrate concentrations and different product inhibition conditions will be encountered. In this example, a Michaelis-Menten kinetics model was used to describe BG kinetics. To determine these kinetic properties, BG activity assays using standard substrates pNPG and cellobiose were employed. yEdQ745-BG (wild type) and yEdQ885-BG (improved), were compared with two commercial BGs, A-BG (Accellerase®) BG from Dupont) and S-BG (Novozymes SP188 from Sigma).
BG activity assay using pNPG is one of the two commonly used standard assays to measure BG activity, which utilizes hydrolysis of p-nitrophenyl-β-D-glucopyranoside (pNPG) by BG into a yellow colored product, p-nitrophenol (pNP), that has a strong absorbance at 405 nm. One pNPG unit is defined as the amount of enzyme that produces 1 μmol of pNP per min. Briefly, to determine BG activity, 25 μL of diluted enzyme in 200 mM sodium acetate buffer (pH 5.0) was mixed with 25 μL of the same buffer and 25 μL of RO water (or glucose solution for the kinetic study) and the mixture was preincubated at 50° C. for 5 min. The reaction was initiated by adding 25 μL of 10 mM pNPG in 200 mM sodium acetate buffer (pH 5.0) and the mixture was incubated at 50° C. for 10 min. The reaction was then terminated by adding 100 μL of 0.25 M sodium carbonate, and the amount of pNP produced was determined by measuring absorbance at 405 nm using a predetermined calibration curve. […]
To determine the kinetic properties, a competitive inhibition mechanism was hypothesized as proposed in the literature (Chauve et al, 2010; Krogh et al, 2010). […] The turnover number, Kcat, can be calculated by Equation (2), where [Et] is the total amount of enzyme.
Conventionally, linearization methods can be used to determine the kinetic parameters based on Equation (1). […] Thus, Vmax, Km and Ki can be determined simultaneously from this fitting process, and Km/Ki can then be calculated. Kcat can be obtained by Equation (2) and Kcat/Km can be calculated accordingly. […]

Substrate in series [2]: OC[C@H]1O[C@@H](O[C@H]2[C@H](O)[C@@H](O)C(O)O[C@@H]2CO)[C@H](O)[C@@H](O)[C@@H]1O
The series can be described thus: BG kinetics, cellobiose hydrolysis assay (HPLC) with glucose as competitive inhibitor, yEdQ885-BG. To be noted: other: cellobiose substrate, pH 4.8, 50° C.
Description: as §1, §2, §3
(§4) BG activity assay using cellobiose is the other standard assay to measure BG or cellobiase activity, which utilizes hydrolysis of cellobiose by cellobiase into two molecules of glucose, the last step of enzymatic hydrolysis of cellulose. One cellobiase unit (commonly termed as CBU) is defined as the amount of enzyme that converts […] of cellobiose or produces 2 μmol of glucose per min. Briefly, to determine BG activity, 25 μL of diluted enzyme in 50 mM citrate buffer (pH 4.8) equilibrated to 50° C. was mixed with 25 μL cellobiose (or cellobiose/glucose mixture for the kinetic study) to start the reaction. The mixture was incubated at 50° C. for 10 min, and the reaction was terminated by incubating the mixture at 99° C. for 5 min. Different methods are available to measure the glucose produced in the assays. For the kinetic study, HPLC was used.
To determine kinetic properties using cellobiose substrate, duplicate assays with cellobiose concentrations ranging from 0.47 to 15 mM and glucose concentrations of 0, 0.9, 4.5, 6.75, and 8.1 (for A-BG) or 9 (for all the other three BGs) g/L were performed. As for pNPG substrate, the range of cellobiose substrate concentration was chosen to show detectable activity at the lowest substrate concentration and saturation stage at high substrate concentration. However, in contrast to the pNPG substrate, when there was still some activity left at glucose concentration up to 36 g/L, most of the BG activity was lost at an inhibitor level of 9 g/L when cellobiose substrate was used. […]

Substrate in series [3]: O=[N+]([O-])c1ccc(O[C@@H]2O[C@H](CO)[C@@H](O)[C@H](O)[C@H]2O)cc1
Description: BG kinetics, pNPG hydrolysis assay with glucose as competitive inhibitor, yEdQ745-BG. To be noted: other: pNPG substrate, pH 5.0, 50° C.
Description: (§5) Accordingly, in some embodiments, the unmodified form of the beta-glucosidase is a wild-type or a naturally occurring beta-glucosidase, such as, for example, a fungal beta-glucosidase. The full nucleic acid and amino acid sequence for numerous fungal beta-glucosidases are available. The amino acid sequence of A. niger beta-glucosidase is provided as SEQ ID NO:2. Thus, in some embodiments, the unmodified beta-glucosidase is from an Aspergillus species. In some embodiments, the unmodified beta-glucosidase is from a Trichoderma species.
as §1
(§6) The BG-expressing strains were subsequently used in corn mash and corn stover simultaneous saccharification and fermentation (SSF) studies using flask scale and pilot plant fermentations. A 12-gallon corn stover fermentation was performed at 40° C. in which the beta-glucosidase secreting yeast strain was co-inoculated with three other engineered yeast strains individually expressing endoglucanase II, CBH1, and CBHII. Surviving TR3 Saccharomyces cerevisiae yeast strains individually expressing BG, EGII, CBH1 or CBH2 were recovered by plating onto solid medium. A clonal population of BG-secreting yeast was isolated and the BG gene integration confirmed. This strain is referred to herein as yEdQ745 and comprises the wild-type BG gene. The BG sequence in the Tau3 integration cassette was used for subsequent mutagenesis experiments.
as §3
BG activity assay using pNPG is one of the two commonly used standard assays to measure BG activity, which utilizes hydrolysis of p-nitrophenyl-β-D-glucopyranoside (pNPG) by BG into a yellow colored product, p-nitrophenol (pNP), that has a strong absorbance at 405 nm. One pNPG unit is defined as the amount of enzyme that produces 1 μmol of pNP per min. […] The reaction was then terminated by adding 100 μL of 0.25 M sodium carbonate, and the amount of pNP produced was determined by measuring absorbance at 405 nm using a predetermined calibration curve. […]

Substrate in series [4]: OC[C@H]1O[C@@H](O[C@H]2[C@H](O)[C@@H](O)C(O)O[C@@H]2CO)[C@H](O)[C@@H](O)[C@@H]1O
The series can be described thus: BG kinetics, cellobiose hydrolysis assay (HPLC) with glucose as competitive inhibitor, yEdQ745-BG. To be noted: other: cellobiose substrate, pH 4.8, 50° C.
Description: as §5, §1, §6, §3
as §4, with “The mixture was incubated at 50° C. for 10 min, and the reaction was terminated by incubating the mixture at 99° C. for 5 min. Different methods are available to measure the glucose produced in the assays. For the kinetic study, HPLC was used.” left out

B1: Aspergillus niger beta-glucosidase (CAB75696.1, SEQ ID NO:2) improved variant yEdQ885-BG (Aspergillus niger; Y363C/Y375F/Y610F) (protein)
chain: DELAYSPPYYPSPWANGQGDWAQAYQRAVDIVSQMTLDEKVNLTTGTGWELELCVGQTGGVPRLGVPGMCLQDSPLGVRDSDYNSAFPAGMNVAATWDKNLAYLRGKAMGQEFSDKGADIQLGPAAGPLGRSPDGGRNWEGFSPDPALSGVLFAETIKGIQDAGVVATAKHYIAYEQEHFRQAPEAQGFGFNISESGSANLDDKTMHELYLWPFADAIRAGAGAVMCSYNQINNSYGCQNSYTLNKLLKAELGFQGFVMSDWAAHHAGVSGALAGLDMSMPGDVDYDSGTSYWGTNLTISVLNGTVPQWRVDDMAVRIMAAYYKVGRDRLWTPPNFSSWTRDECGYKYYYVSEGPFEKVNQYVNVQRNHSELIRRIGADSTVLLKNDGALPLTGKERLVALIGEDAGSNPYGANGCSDRGCDNGTLAMGWGSGTANFPYLVTPEQAISNEVLKHKNGVFTATDNWAIDQIEALAKTASVSLVFVNADSGEGYINVDGNLGDRRNLTLWRNGDNVIKAAASNCNNTIVVIHSVGPVLVNEWYDNPNVTAILWGGLPGQESGNSLADVLYGRVNPGAKSPFTWGKTREAYQDFLVTEPNNGNGAPQEDFVEGVFIDYRGFDKRNETPIYEFGYGLSYTTFNYSNLEVQVLSAPAYEPASGETEAAPTFGEVGNASDYLYPSGLQRITKFIYPWLNGTDLEASSGDASYGQDSSDYLPEGATDGSAQPILPAGGGPGGNPRLYDELIRVSVTIKNTGKVAGDEVPQLYVSLGGPNEPKIVLRQFERITLQPSEETKWSTTLTRRDLANWNVEKQDWEITSYPKMVFVGSSSRKLPLRASLPTVH
notes: strain yEdQ885, BG acid/base mutant #8
On to B1, for which, in series [1], the Km was found to be 640 ± 30 µM, the Vmax is 6.33 µmol/min/mg, the turnover number (kcat) was 12.7 s⁻¹ and the catalytic efficiency (kcat/Km) worked out at 19800 M⁻¹ s⁻¹. Moreover, in series [2], the Km was determined as 1450 ± 260 µM, the maximum rate (Vmax) turned out to be 11.6 µmol/min/mg, the kcat is 23.1 s⁻¹ and the kcat/Km amounted to 16000 M⁻¹ s⁻¹.

B2: Aspergillus niger beta-glucosidase, wild type, yEdQ745-BG (CAB75696.1, SEQ ID NO:2) (Aspergillus niger) (protein)
chain: DELAYSPPYYPSPWANGQGDWAQAYQRAVDIVSQMTLDEKVNLTTGTGWELELCVGQTGGVPRLGVPGMCLQDSPLGVRDSDYNSAFPAGMNVAATWDKNLAYLRGKAMGQEFSDKGADIQLGPAAGPLGRSPDGGRNWEGFSPDPALSGVLFAETIKGIQDAGVVATAKHYIAYEQEHFRQAPEAQGFGFNISESGSANLDDKTMHELYLWPFADAIRAGAGAVMCSYNQINNSYGCQNSYTLNKLLKAELGFQGFVMSDWAAHHAGVSGALAGLDMSMPGDVDYDSGTSYWGTNLTISVLNGTVPQWRVDDMAVRIMAAYYKVGRDRLWTPPNFSSWTRDEYGYKYYYVSEGPYEKVNQYVNVQRNHSELIRRIGADSTVLLKNDGALPLTGKERLVALIGEDAGSNPYGANGCSDRGCDNGTLAMGWGSGTANFPYLVTPEQAISNEVLKHKNGVFTATDNWAIDQIEALAKTASVSLVFVNADSGEGYINVDGNLGDRRNLTLWRNGDNVIKAAASNCNNTIVVIHSVGPVLVNEWYDNPNVTAILWGGLPGQESGNSLADVLYGRVNPGAKSPFTWGKTREAYQDYLVTEPNNGNGAPQEDFVEGVFIDYRGFDKRNETPIYEFGYGLSYTTFNYSNLEVQVLSAPAYEPASGETEAAPTFGEVGNASDYLYPSGLQRITKFIYPWLNGTDLEASSGDASYGQDSSDYLPEGATDGSAQPILPAGGGPGGNPRLYDELIRVSVTIKNTGKVAGDEVPQLYVSLGGPNEPKIVLRQFERITLQPSEETKWSTTLTRRDLANWNVEKQDWEITSYPKMVFVGSSSRKLPLRASLPTVH
notes: strain yEdQ745
Take B2: in series [3], the Michaelis-Menten constant (Km) came to 640 ± 60 µM, the maximum rate (Vmax) was determined as 4.17 µmol/min/mg, the kcat was 8.34 s⁻¹ and the kcat/Km was found to be 13000 M⁻¹ s⁻¹. Further, in series [4], the Michaelis constant (Km) came out at 1450 ± 290 µM, the maximal velocity (Vmax) turned out to be 4.36 µmol/min/mg, the turnover number (kcat) was 8.72 s⁻¹ and the catalytic efficiency (kcat/Km) worked out at 6010 M⁻¹ s⁻¹.
